# Assay results published in PMC6663966.
# Tests used:
# Test in all cases: purified protein
# Settings in all cases: HEPES buffer supplemented with zinc; room temperature
# [1] = system: CO/N=C(\C(=O)N[C@@H]1C(=O)N2C(C(=O)[O-])=C(C[N+]3(C)CCCC3)CS[C@H]12)c1csc(N)n1
# [2] = system: C[C@@H](O)[C@H]1C(=O)N2C(C(=O)O)=C(S[C@@H]3CN[C@H](C(=O)Nc4cccc(C(=O)O)c4)C3)[C@H](C)[C@H]12
# [3] = system: CO/N=C(\C(=O)N[C@@H]1C(=O)N2C(C(=O)O)=C(COC(C)=O)CS[C@H]12)c1csc(N)n1
# [4] = system: CCN1CCN(C(=O)N[C@@H](C(=O)N[C@@H]2C(=O)N3[C@@H]2SC(C)(C)[C@@H]3C(=O)O)c2ccccc2)C(=O)C1=O
# [5] = system: CC1(C)S[C@@H]2[C@H](NC(=O)Cc3ccccc3)C(=O)N2[C@H]1C(=O)O
# [6] = system: CC(C)(O/N=C(\C(=O)N[C@@H]1C(=O)N2C(C(=O)[O-])=C(C[n+]3ccccc3)CS[C@H]12)c1csc(N)n1)C(=O)O
# [7] = system: C[C@H]1[C@H](NC(=O)/C(=N\OC(C)(C)C(=O)O)c2csc(N)n2)C(=O)N1S(=O)(=O)O
# [8] = system: CO[C@@]1(NC(=O)Cc2cccs2)C(=O)N2C(C(=O)O)=C(COC(N)=O)CS[C@@H]21
# [9] = system: C[C@@H](O)[C@H]1C(=O)N2C(C(=O)O)=C(S[C@@H]3CN[C@H](C(=O)N(C)C)C3)[C@H](C)[C@H]12
# [10] = system: C[C@@H](O)[C@H]1C(=O)N2C(C(=O)O)=C(SCCN=CN)C[C@H]12
# [11] = system: CC(=O)OCC1=C(C(=O)O)N2C(=O)[C@@H](NC(=O)Cc3cccs3)[C@H]2SC1
substance,measurement,setting,value
PAN-1 (Pseudobacteriovorax antillogorgiicola),kcat,[1],< 0.01 s⁻¹
same,Km,[2],368.5 µM
same,kcat,[2],2.9 s⁻¹
same,kcat/Km,[2],7800 M⁻¹ s⁻¹
same,Km,[3],245.7 µM
same,kcat,[3],3.9 s⁻¹
same,kcat/Km,[3],16000 M⁻¹ s⁻¹
same,Km,[4],1074.2 µM
same,kcat,[4],73.6 s⁻¹
same,kcat/Km,[4],68000 M⁻¹ s⁻¹
same,Km,[5],161 µM
same,kcat,[5],23.6 s⁻¹
same,kcat/Km,[5],146000 M⁻¹ s⁻¹
same,Km,[6],144.4 µM
same,kcat,[6],8.1 s⁻¹
same,kcat/Km,[6],56000 M⁻¹ s⁻¹
same,kcat,[7],< 0.01 s⁻¹
same,Km,[8],13.3 µM
same,kcat,[8],1.9 s⁻¹
same,kcat/Km,[8],143000 M⁻¹ s⁻¹
same,Km,[9],386 µM
same,kcat,[9],22.9 s⁻¹
same,kcat/Km,[9],59000 M⁻¹ s⁻¹
same,Km,[10],470.5 µM
same,kcat,[10],43.8 s⁻¹
same,kcat/Km,[10],93100 M⁻¹ s⁻¹
same,Km,[11],32.2 µM
same,kcat,[11],6.9 s⁻¹
same,kcat/Km,[11],214000 M⁻¹ s⁻¹
